Patent US20220401560A1, “PEPTIDE ENCAPSULATING FERRITIN” (Ajinomoto Co., Inc., priority 2019, published 2022)

Target: transferrin receptor TfR (human) (UniProt P02786)
Assay: cell-based or functional assay

FAM-SV40 encapsulating FTH, sequence (P02794 whole entry): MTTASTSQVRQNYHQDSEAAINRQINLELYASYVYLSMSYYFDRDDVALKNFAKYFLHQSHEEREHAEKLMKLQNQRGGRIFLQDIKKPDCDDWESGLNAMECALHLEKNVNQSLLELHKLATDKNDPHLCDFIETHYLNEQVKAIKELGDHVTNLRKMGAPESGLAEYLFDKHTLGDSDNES

## FAM-SV40 encapsulating FTH (from UniProt P02794 1-183)
  concentration needed for fluorescence from 90% or more of HEK 293E cells (low TfR expression) by FACS: > 800 nM
  percent of fluorescent SKBR 3 cells (high TfR expression) by FACS at 100 nM FAM-SV40 encapsulating FTH: > 90%
  ratio of fluorescent cells, SKBR 3 (high TfR) against HEK 293E (low TfR), at 100 nM: 60 times
